From the Human Domainome abundance scans (Beltran et al. 2025) come the findings set out here.

± gives the uncertainty stated by the source.

B1: Homeobox protein SIX3, residues 212 to 262; numbered along this chain, O95343 (parent)
chain: CFKERTRSLLREWYLQDPYPNPSKKRELAQATGLTPTQVGNWFKNRRQRDR

Variants of B1 are the subject of this data set. As to the kind of experiment: abundance fitness (aPCA) (normalised: wild type 0, dead -1); higher = more abundant; growth selection in yeast, the domain comes from the species named. As to conditions: Homo sapiens.
As for CFKERTRSLLREWYLQDPYPNPSKKRELAQATMLTPTQVGNWFKNRRQRDR [G33M], the abundance fitness was -0.75 ± 0.11.

Turning to CFKERTRSLLREWYLQDPYPNPSKKRELAQATKLTPTQVGNWFKNRRQRDR [G33K], the abundance fitness is -0.494 ± 0.073.

For the variant CFKERTRSLLREWYLQDPYPNPSKKRELAQATALTPTQVGNWFKNRRQRDR [G33A], the abundance fitness was -0.674 ± 0.1. As for CFKERTRSLLREWYLQDPYPNPSKKRELAQATFLTPTQVGNWFKNRRQRDR [G33F], the figure is -0.774 ± 0.065; as for CFKERTRSLLREWYLQDPYPNPSKKRELAQATPLTPTQVGNWFKNRRQRDR [G33P], -0.746 ± 0.16; as for CFKERTRSLLREWYLQDPYPNPSKKRELAQATLLTPTQVGNWFKNRRQRDR [G33L], -0.812 ± 0.057. For CFKERTRSLLREWYLQDPYPNPSKKRELAQATNLTPTQVGNWFKNRRQRDR [G33N], the abundance fitness was determined as 0.029 ± 0.12. As for CFKERTRSLLREWYLQDPYPNPSKKRELAQATILTPTQVGNWFKNRRQRDR [G33I], the figure is -0.902 ± 0.25; as for CFKERTRSLLREWYLQDPYPNPSKKRELAQATQLTPTQVGNWFKNRRQRDR [G33Q], -0.57 ± 0.087.

CFKERTRSLLREWYLQDPYPNPSKKRELAQATDLTPTQVGNWFKNRRQRDR [G33D]: the abundance fitness was -0.412 ± 0.079. As for CFKERTRSLLREWYLQDPYPNPSKKRELAQATHLTPTQVGNWFKNRRQRDR [G33H], the figure is -0.542 ± 0.12. As for CFKERTRSLLREWYLQDPYPNPSKKRELAQATCLTPTQVGNWFKNRRQRDR [G33C], the abundance fitness is -0.643 ± 0.12. In the case of CFKERTRSLLREWYLQDPYPNPSKKRELAQATELTPTQVGNWFKNRRQRDR [G33E] it was -0.915 ± 0.12. In the case of CFKERTRSLLREWYLQDPYPNPSKKRELAGATGLTPTQVGNWFKNRRQRDR [Q30G] it was -0.166 ± 0.05; in that of CFKERTRSLLREWYLQDPYPNPSKKRELAIATGLTPTQVGNWFKNRRQRDR [Q30I], 0.228 ± 0.087.

In the case of CFKERTRSLLREWYLQDPYPNPSKKRELAVATGLTPTQVGNWFKNRRQRDR [Q30V], the abundance fitness was -0.163 ± 0.054. On to CFKERTRSLLREWYLQDPYPNPSKKRELASATGLTPTQVGNWFKNRRQRDR [Q30S], for which the abundance fitness was -0.044 ± 0.039.

With CFKERTRSLLREWYLQDPYPNPSKKRELAPATGLTPTQVGNWFKNRRQRDR [Q30P], the abundance fitness is -0.93 ± 0.15.

For CFKERTRSLLREWYLQDPYPNPSKKRELAWATGLTPTQVGNWFKNRRQRDR [Q30W], the abundance fitness was -0.097 ± 0.072. As for CFKERTRSLLREWYLQDPYPNPSKKRELAFATGLTPTQVGNWFKNRRQRDR [Q30F], the figure is -0.284 ± 0.065. In the case of CFKERTRSLLREWYLQDPYPNPSKKRELAAATGLTPTQVGNWFKNRRQRDR [Q30A] it was -0.19 ± 0.059; in that of CFKERTRSLLREWYLQDPYPNPSKKRELADATGLTPTQVGNWFKNRRQRDR [Q30D], 0.037 ± 0.084. As for CFKERTRSLLREWYLQDPYPNPSKKRELACATGLTPTQVGNWFKNRRQRDR [Q30C], the figure is -0.243 ± 0.039; as for CFKERTRSLLREWYLQDPYPNPSKKRELAHATGLTPTQVGNWFKNRRQRDR [Q30H], -0.149 ± 0.048. Turning to CFKERTRSLLREWYLQDPYPNPSKKRELAYATGLTPTQVGNWFKNRRQRDR [Q30Y], the abundance fitness was -0.314 ± 0.099. Turning to CFKERTRSLLREWYLQDPYPNPSKKRELAEATGLTPTQVGNWFKNRRQRDR [Q30E], the abundance fitness is -0.068 ± 0.094. As for CFKERTRSLLREWYLQDPYPNPSKKRELALATGLTPTQVGNWFKNRRQRDR [Q30L], the figure is -0.139 ± 0.045; as for CFKERTRSLLREWYLQDPYPNPSKKRELARATGLTPTQVGNWFKNRRQRDR [Q30R], -0.329 ± 0.05. In the case of CFKERTRSLLREWYLQDPYPNPSKKRELANATGLTPTQVGNWFKNRRQRDR [Q30N] it was 0.114 ± 0.09; in that of CFKERTRSLLREWYLQDPYPNPSKKRELAQTTGLTPTQVGNWFKNRRQRDR [A31T], -0.147 ± 0.063.

For CFKERTRSLLREWYLQDPYPNPSKKRELAQMTGLTPTQVGNWFKNRRQRDR [A31M], the abundance fitness was -0.087 ± 0.078. In the case of CFKERTRSLLREWYLQDPYPNPSKKRELAQQTGLTPTQVGNWFKNRRQRDR [A31Q] it was -0.023 ± 0.077; in that of CFKERTRSLLREWYLQDPYPNPSKKRELAQETGLTPTQVGNWFKNRRQRDR [A31E], -0.076 ± 0.048. As for CFKERTRSLLREWYLQDPYPNPSKKRELAQLTGLTPTQVGNWFKNRRQRDR [A31L], the figure is 0.088 ± 0.065. As for CFKERTRSLLREWYLQDPYPNPSKKRELAQCTGLTPTQVGNWFKNRRQRDR [A31C], the figure is -0.296 ± 0.095; as for CFKERTRSLLREWYLQDPYPNPSKKRELAQWTGLTPTQVGNWFKNRRQRDR [A31W], -0.326 ± 0.052; as for CFKERTRSLLREWYLQDPYPNPSKKRELAQNTGLTPTQVGNWFKNRRQRDR [A31N], -0.506 ± 0.16. With CFKERTRSLLREWYLQDPYPNPSKKRELAQDTGLTPTQVGNWFKNRRQRDR [A31D], the abundance fitness was -0.475 ± 0.12. In the case of CFKERTRSLLREWYLQDPYPNPSKKRELAQKTGLTPTQVGNWFKNRRQRDR [A31K] it was -0.094 ± 0.094; in that of CFKERTRSLLREWYLQDPYPNPSKKRELAQVTGLTPTQVGNWFKNRRQRDR [A31V], -0.169 ± 0.069; in that of CFKERTRSLLREWYLQDPYPNPSKKRELAQITGLTPTQVGNWFKNRRQRDR [A31I], -0.148 ± 0.1.

Take CFKERTRSLLREWYLQDPYPNPSKKRELAQGTGLTPTQVGNWFKNRRQRDR [A31G]: the abundance fitness is -0.651 ± 0.044. As for CFKERTRSLLREWYLQDPYPNPSKKRELAQSTGLTPTQVGNWFKNRRQRDR [A31S], the figure is -0.186 ± 0.06; as for CFKERTRSLLREWYLQDPYPNPSKKRELAQYTGLTPTQVGNWFKNRRQRDR [A31Y], -0.349 ± 0.069. On to CFKERTRSLLREWYLQDPYPNPSKKRELAQPTGLTPTQVGNWFKNRRQRDR [A31P], for which the abundance fitness was -0.892 ± 0.27. Regarding CFKERTRSLLREWYLQDPYPNPSKKRELAQFTGLTPTQVGNWFKNRRQRDR [A31F], the abundance fitness is -0.749 ± 0.18. For CFKERTRSLLREWYLQDPYPNPSKKRELAQHTGLTPTQVGNWFKNRRQRDR [A31H], the abundance fitness is -0.062 ± 0.11.

For the variant CFKERTRSLLREWYLQDPYPNPSKKRELCQATGLTPTQVGNWFKNRRQRDR [A29C], the abundance fitness is -0.588 ± 0.24. In the case of CFKERTRSLLREWYLQDPYPNPSKKRELSQATGLTPTQVGNWFKNRRQRDR [A29S] it was -0.125 ± 0.084; in that of CFKERTRSLLREWYLQDPYPNPSKKRELHQATGLTPTQVGNWFKNRRQRDR [A29H], -0.777 ± 0.34.

CFKERTRSLLREWYLQDPYPNPSKKRELTQATGLTPTQVGNWFKNRRQRDR [A29T]: the abundance fitness is -0.76 ± 0.26.
